The target in assay [1] is T1, cynomolgus monkey CD3 on T cells (cynomolgus monkey, UniProt Q95LI5 22-198).
T1 construct: whole, on cells
The assay is described as follows: flow cytometry, monkey CD4+ T cells. As for the experimental part: (§1) Binding of CD20xCD3 bispecific or SAFE-bispecific antibodies to purified human CD3+ T cells was determined by flow cytometry. Briefly, human or monkey PBMC were freshly purified with Ficoll gradient solution—Histopaque 1077 (Sigma) from a healthy donor and CD3+ T cells were isolated using EasySep™ Human T cell Enrichment Kit (StemCell). Before staining, […] human Fc receptors on CD3+ T cells were blocked with Human Fc Block (BD). Then cells were incubated with fluorescence labeled antibody mixture (APC-Cy7 Mouse Anti-human CD3, PerCP-CyTM5.5 Anti-human CD4 and FITC anti-human CD8) for 15 minutes at 4° C. After washing the cells once with PBS supplemented with 2% FBS, cells were aliquoted to 96-well plates at 2×10⁵ cells per well, and cells were incubated with serial diluted bispecific, SAFE-bispecific or IgG1 isotype control antibodies for 30 minutes at 4° C. After washing the cells twice with PBS supplemented with 2% FBS, cell surface bound antibody was detected by incubating the cells with APC-labeled mouse anti-human IgG Fc secondary antibody for 30 minutes at 4° C. Cells were washed and detected by FACS using Cytoflex (BeckMan) and data was analyzed by FlowJo. The mean fluorescence (MFI) of each antibody binding to human or monkey CD4+ T cells and CD8+ T cell populations were fitted with four-parameter non-linear regression to get EC₅₀ values by GraphPad Prism software.

In assay [2] the target is T2, human CD3 on cells (Jurkat cells, human T cells) (human, UniProt P07766 23-207).
T2 construct: whole, on cells
The assay is described as follows: binding to human CD3+ T cells.

For assay [3], the target named is T3, human CD20 on cells (human B cells; Raji, SU-DHL-8, SU-DHL-4, A3KAW, NAMALWA) (human, UniProt P11836 1-297).
T3 construct: whole, on cells
T3 sequence (looked up): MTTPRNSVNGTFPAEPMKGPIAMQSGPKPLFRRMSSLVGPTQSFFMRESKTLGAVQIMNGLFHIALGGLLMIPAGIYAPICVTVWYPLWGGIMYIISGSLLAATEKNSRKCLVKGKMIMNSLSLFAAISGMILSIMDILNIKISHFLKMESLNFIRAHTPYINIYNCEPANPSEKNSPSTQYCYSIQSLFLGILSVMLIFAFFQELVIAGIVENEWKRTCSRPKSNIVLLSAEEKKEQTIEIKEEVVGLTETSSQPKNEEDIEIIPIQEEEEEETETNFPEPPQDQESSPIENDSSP
The assay is described as follows: flow cytometry, human B cells. As for the experimental part:
After washing the cells twice with PBS supplemented with 2% FBS, cell surface bound antibody was detected by incubating the cells with APC-labeled mouse anti-human IgG Fc secondary antibody for 30 minutes at 4° C. Cells were washed and detected by FACS using Cytoflex (BeckMan) and data was analyzed by FlowJo.
On the technique in general: Flow cytometry measures light scatter and fluorescence of single cells or particles in a stream.

Assay [4] deals with T2, human CD3 on cells (Jurkat cells, human …). The assay is described as follows: flow cytometry, human CD3+ T cells. The source says:
(§2) Human PBMCs were freshly isolated from the blood of healthy donors by density gradient centrifugation using Histopaque-1077 (Sigma). Human CD3+ T cells were further isolated from PBMCs using the Human T Cell Enrichment Kit (Stem Cell Technologies). Monkey PBMCs were isolated from a naïve cynomolgus monkey by density gradient centrifugation using Histopaque-1077 (Sigma). Monkey CD3+ T cells were isolated from PBMCs using the Pan T Cell Isolation Kit Non-Human Primate (Miltenyi Biotec). Purified human or monkey CD3+ T cells were stained with the testing antibodies as the primary antibody and the APC-labelled anti-human-Fc antibody (BioLegend) as the secondary antibody. After washing, the cells were analyzed on the CytoFLEX flow cytometer (Beckman Coulter) and the data was analyzed by FlowJo software.

Assay [5] shares this target. The assay is described as follows: binding to human CD8+ T cells.
The target is the same in assay [6]. The assay is described as follows: binding to human CD4+ T cells.
In assay [7] the target is T1, cynomolgus monkey CD3 on T cells. The assay is described as follows: flow cytometry, monkey CD8+ T cells. As for the experimental part: as §1
The target of assay [8] is T4, cynomolgus monkey CD20 on B cells (cynomolgus monkey, UniProt M4ZHZ6 1-297).
T4 construct: whole, on cells
T4 sequence: T3 sequence (looked up) with S25P, F31L, T51A, A157V, K217R, N226S, I227V, T239V
The assay is described as follows: flow cytometry, monkey B cells.

In assay [9] the target is T1, cynomolgus monkey CD3 on T cells. The assay is described as follows: flow cytometry, monkey CD3+ T cells.
Description: as §2

For assay [10], the target named is T2, human CD3 on cells (Jurkat cells, human …). In words: flow cytometry on Jurkat cells, APC anti-human IgG secondary antibody. As for the experimental part: The Jurkat cells were thawed, washed, and cultured in an incubator. Jurkat cells were washed and 1×10⁵ Jurkat cells/well were aliquoted into 96-well plate and incubated with test articles for 1 hour at 4° C. After centrifugation and washing, Jurkat cells were further incubated with the secondary antibody APC anti-Human IgG for 30 minutes at 4° C. After centrifugation and washing, the Jurkat cells labelled with antibodies were re-suspended in 2% FBS DPBS and then were analyzed by FACS.

For assay [11] the target is unchanged. In words: cell-based or functional assay.

The values below come from patent US20250326860A1 (ADAGENE PTE, published 2025).

By EC50 is commonly meant the concentration at which the effect is half-maximal. A word on the EC50 (read off the curve): it is the midpoint of the concentration-response curve.

Residue numbers refer to the chain shown, from its start. “And” between values parts separate entries of the source, which are not always exact repeats. Identical values can stand only once.

T1 sequence (Q95LI5 22-198): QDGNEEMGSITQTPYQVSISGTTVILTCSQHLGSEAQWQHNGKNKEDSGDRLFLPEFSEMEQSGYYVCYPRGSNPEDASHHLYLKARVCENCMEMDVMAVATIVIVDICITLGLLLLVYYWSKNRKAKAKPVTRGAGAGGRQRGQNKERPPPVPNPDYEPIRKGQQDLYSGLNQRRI
T2 sequence (P07766 23-207): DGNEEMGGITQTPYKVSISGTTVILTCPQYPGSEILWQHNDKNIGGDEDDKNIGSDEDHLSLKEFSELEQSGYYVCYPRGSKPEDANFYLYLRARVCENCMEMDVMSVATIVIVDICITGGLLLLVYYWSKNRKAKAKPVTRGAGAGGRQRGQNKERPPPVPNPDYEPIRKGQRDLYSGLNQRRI

B1: TY25455 (bispecific antibody, human IgG1, kappa, N297A)
light: QIVLSQSPAILSASPGEKVTMTCRASSSVSYIHWFQQKPGKSPKPWIYATSNLASGVPVRFSGSGSGTSYSLTISRVEAEDAATYYCQQWTSNPPTFGGGTKVEIKRTVAAPSVFIFPPSDEQLKSGTASVVCLLNNFYPREAKVQWKVDNALQSGNSQESVTEQDSKDSTYSLSSTLTLSKADYEKHKVYACEVTHQGLSSPVTKSFNRGEC
heavy: EVQLVQSGAEVKKPGSSVKVSCKASGYTFTSYNMHWVRQAPGKGLEWIGAIYPGSGDTSYNQKFKGRVTITADKSTSTAYMELSSLRSEDTAVYYCARSTYYGGDWYFNVWGQGTLVTVSSASTKGPSVFPLAPSSKSTSGGTAALGCLVKDYFPEPVTVSWNSGALTSGVHTFPAVLQSSGLYSLSSVVTVPSSSLGTQTYICNVNHKPSNTKVDKKVEPKSCDKTHTCPPCPAPELLGGPSVFLFPPKPKDTLMISRTPEVTCVVVDVSHEDPEVKFNWYVDGVEVHNAKTKPREEQYASTYRVVSVLTVLHQDWLNGKEYKCKVSNKALPAPIEKTISKAKGQPREPQVYTLPPSRKKLTKNQVKLTCLVKGFYPSDIAVEWESNGQPENNYKTTPPVLDCDGSFFLYSKLTVDKSRWQQGNVFSCSVMHEALHNHYTQKSLSLSPGK
chain: QAVVTQEPSLTVSPGGTVTLTCGSSTGAVTTSNYPNWVQQKPGQAPRGLIGGTNKRAPGVPARFSGSLLGGKAALTLSGAQPEDEAEYYCALWYSNLWVFGGGTKLTVLGGGGSGGGGSGGGGSGGGGSEVQLVESGGGLVQPGGSLRLSCAASGFTFNTYAINWVRQAPGKGLEWVGRIRSKYNNYATYYAESVKGRFTISRDDSKNTLYLQINSLRAEDTAVYYCVRHGNFGTSYVSWFAYWGQGTLVTVSSEPKSSDKTHTCPPCPAPELLGGPSVFLFPPKPKDTLMISRTPEVTCVVVDVSHEDPEVKFNWYVDGVEVHNAKTKPREEQYASTYRVVSVLTVLHQDWLNGKEYKCKVSNKALPAPIEKTISKAKGQPREPQVYTDPPSRDELTKNQVSLTCLVDGFYPSDIAVEWESNGQPENCYKTTPPVLDSDGSFFLYSKLTVDKSRWQQGNVFSCSVMHEALHNHYTQDSLSLSPGK
notes: also called parental CD20xCD3 bispecific antibody of TY25606; TY2455
With B1, the EC50 amounted to 27.3 nM in assay [1]; 21.7 nM in assay [2]; 9.52 nM in assay [4]; 25.4 nM in assay [5]; 18.1 nM in assay [6]; 82.1 nM in assay [7]. The EC50 was 39.1 nM in assay [8] and 10.5 nM in [9]. Moreover, the binding result in assay [3] is “binds”. For the same molecule, the “max MFI” value in assay [4] came to 4850 MFI; in [9], 2100 MFI.

B2: TAC2225 (antibody, V domains shown)
VH: EVQLVESGGGLVQPGGSLRLSCAASGFTFNTYAMNWVRQAPGKGLEWVGRIRSKYNNYATYYADSVKGRFTISRDDSKNTLYLQMNSLRAEDTAVYYCVRHGNFGNSYVSWFAYWGQGTLVTVSS
VL: QAVVTQEPSLTVSPGGTVTLTCGSSTGAVTTSNYANWVQQKPGQAPRGLIGGTNKRAPGVPARFSGSLLGGKAALTLSGAQPEDEAEYYCALWYSNLWVFGGGTKLTVL
notes: also called parental cross-reactive anti-CD3 antibody; humanized SP34
With B2, the “EC50 (read off the curve)” value in assay [10] was ~0.7 nM and ~0.3 nM and ~0.5 nM and ~0.6 nM. Besides, in assay [11], the “Jurkat NFAT reporter assay EC50” value was found to be 0.02 nM and the “Masking efficiency (Jurkat NFAT reporter assay)” value is 1 fold.
